Measurements taken from patent publication US20260159566A1 (US Dept. of Health and Human Services, published 2026).
Where two headings read alike, the source gives them in different places.

What was measured:
[1] = target: T1, B-cell Maturation Antigen (BCMA) (human, UniProt Q02223 1-184); assay: cell-based or functional assay
T1 sequence: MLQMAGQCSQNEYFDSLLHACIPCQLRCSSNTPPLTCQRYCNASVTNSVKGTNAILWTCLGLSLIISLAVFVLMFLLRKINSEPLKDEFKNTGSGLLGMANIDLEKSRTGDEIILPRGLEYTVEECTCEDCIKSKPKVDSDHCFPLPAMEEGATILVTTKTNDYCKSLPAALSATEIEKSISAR

[2] = target: T1, B-cell Maturation Antigen (BCMA); assay: cell-based or functional assay; remark: listed apart in the source
[3] = target: T2, BCMA-Fc protein labeled with phycoerythrin (Homo sapiens (Human), UniProt Q02223 1-54, labeled with phycoerythrin); assay: flow cytometry, BCMA-Fc-PE staining of CAR-transduced T cells
T2 construct: Staining reagent; also called BCMA-Fc-PE reagent; BCMA-Fc protein reagent; not shown: Fc part
T2 sequence: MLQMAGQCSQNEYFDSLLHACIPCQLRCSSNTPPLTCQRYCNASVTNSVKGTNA
Method: (§1) With reference to Table 2, cultured T cells were transduced with the indicated CARs and cultured overnight with the indicated target cells (top row). After the overnight incubation, a standard ELISA assay was performed on the culture supernatant. BCMA-K562 is BCMA⁺. All other targets are BCMA-negative. The percentage of T cells expressing the indicated CAR was determined by staining with a BCMA-Fc-PE reagent followed by flow cytometry. The % CAR⁺ equals the percentage of CD3⁺ cells transduced with each CAR that stained with the BCMA-Fc-PE reagent minus the percentage of untransduced CD3⁺ lymphocytes that stained with the BCMA-Fc-PE reagent. Except for the % CAR⁺ column, all numbers are pg/mL of interferon-gamma.

[4] = target: T2, BCMA-Fc protein labeled with …; assay: as above; remark: listed apart in the source
Method: as §1

B1: FHVH33-CD828Z (other)
chain: EVQLLESGGGLVQPGGSLRLSCAASGFTFSSYAMSWVRQAPGKGLEWVSSISGSGDYIYYADSVKGRFTISRDISKNTLYLQMNSLRAEDTAVYYCAKEGTGANSSLADYRGQGTLVTVSSFVPVFLPAKPTTTPAPRPPTPAPTIASQPLSLRPEACRPAAGGAVHTRGLDFACDIYIWAPLAGTCGVLLLSLVITLYCNHRNRSKRSRLLHSDYMNMTPRRPGPTRKHYQPYAPPRDFAAYRSRVKFSRSADAPAYQQGQNQLYNELNLGRREEYDVLDKRRGRDPEMGGKPRRKNPQEGLYNELQKDKMAEAYSEIGMKGERRRGKGHDGLYQGLSTATKDTYDALHMQALPPR
notes: Chimeric antigen receptor on transduced primary human T cells; also called FHVH33 CAR
Interferon-gamma ELISA, T cells cultured overnight with BCMA-K562 cells [1]: 31300 pg/mL | Interferon-gamma ELISA, T cells cultured overnight with RPMI-8226 cells [1]: 4060 pg/mL | Tumor-necrosis factor-alpha ELISA, T cells cultured overnight with BCMA-K562 cells [2]: 2160 pg/mL | Tumor-necrosis factor-alpha ELISA, T cells cultured overnight with RPMI-8226 cells [2]: 210 pg/mL | % CAR+ (percentage of CD3+ cells stained with BCMA-Fc-PE minus untransduced) [3]: 60.5% | % CAR+ (percentage of CD3+ cells stained with BCMA-Fc-PE minus untransduced) [4]: 60.5%
